Source: patent US20240181006A1, “POLYPEPTIDES BINDING ADAMTS5, MMP13 AND AGGRECAN” (Merck Patent GmbH, priority 2017, published 2024)

Key:
[1] = biological target: T1, human ADAMTS5 (Homo sapiens, UniProt Q9UNA0); assay: SPR-based off-rate analysis, human ADAMTS5; assay type: binding
T1 sequence (Q9UNA0 262-930): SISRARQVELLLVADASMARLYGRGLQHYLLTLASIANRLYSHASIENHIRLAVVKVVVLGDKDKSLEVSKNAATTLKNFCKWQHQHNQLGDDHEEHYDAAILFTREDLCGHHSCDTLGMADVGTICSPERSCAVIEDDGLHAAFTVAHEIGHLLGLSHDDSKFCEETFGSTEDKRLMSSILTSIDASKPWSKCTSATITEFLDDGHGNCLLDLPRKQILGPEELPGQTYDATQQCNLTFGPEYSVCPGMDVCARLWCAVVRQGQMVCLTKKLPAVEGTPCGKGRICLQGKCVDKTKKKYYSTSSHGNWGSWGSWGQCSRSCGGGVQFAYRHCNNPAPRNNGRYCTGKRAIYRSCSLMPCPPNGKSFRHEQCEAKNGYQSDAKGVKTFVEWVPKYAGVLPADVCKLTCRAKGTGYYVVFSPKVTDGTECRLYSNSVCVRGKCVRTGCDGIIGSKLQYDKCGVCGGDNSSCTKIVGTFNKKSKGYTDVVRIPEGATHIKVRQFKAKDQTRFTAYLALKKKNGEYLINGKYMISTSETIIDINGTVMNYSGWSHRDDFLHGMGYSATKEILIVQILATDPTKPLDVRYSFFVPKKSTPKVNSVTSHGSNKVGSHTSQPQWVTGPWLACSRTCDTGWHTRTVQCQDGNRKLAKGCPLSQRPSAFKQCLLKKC
Description: (§1) Species cross-reactivity was initially evaluated via SPR-based off-rate analysis on a Biacore T100 instrument. Polypeptides were tested for binding to human, cynomolgus monkey (“cyno”), guinea pig, mouse, and bovine ADAMTS5. To this end, recombinant ADAMTS5 was immobilized onto a CM5 chip via amine coupling using EDC and NHS. Purified ISVD 02F03 was injected for 2 minutes at a concentration of 100 nM and allowed to dissociate for 15 min at a flow rate of 45 μl/min. Off-rate for each individual ADAMTS5 was determined by fitting a 1:1 interaction model (Langmuir model) onto the individual dissociation curves using the BIA Evaluation software. As a reference, off-rates on human ADAMTS5 were determined in each experiment.

[2] = test system: cynomolgus monkey ADAMTS5; assay: SPR-based off-rate analysis, cynomolgus ADAMTS5; assay type: binding; settings: Experiment 1
Description: as §1

[3] = test system: bovine ADAMTS5; assay: SPR-based off-rate analysis, bovine ADAMTS5; assay type: binding; settings: Experiment 3
Description: as §1

[4] = biological target: T2, human ADAMTS4 (Homo sapiens, UniProt O75173); assay: human ADAMTS4 AlphaLISA; assay type: biochemical; settings: data not shown
T2 construct: purchased R&D Systems 4307-AD
T2 sequence (O75173 213-837): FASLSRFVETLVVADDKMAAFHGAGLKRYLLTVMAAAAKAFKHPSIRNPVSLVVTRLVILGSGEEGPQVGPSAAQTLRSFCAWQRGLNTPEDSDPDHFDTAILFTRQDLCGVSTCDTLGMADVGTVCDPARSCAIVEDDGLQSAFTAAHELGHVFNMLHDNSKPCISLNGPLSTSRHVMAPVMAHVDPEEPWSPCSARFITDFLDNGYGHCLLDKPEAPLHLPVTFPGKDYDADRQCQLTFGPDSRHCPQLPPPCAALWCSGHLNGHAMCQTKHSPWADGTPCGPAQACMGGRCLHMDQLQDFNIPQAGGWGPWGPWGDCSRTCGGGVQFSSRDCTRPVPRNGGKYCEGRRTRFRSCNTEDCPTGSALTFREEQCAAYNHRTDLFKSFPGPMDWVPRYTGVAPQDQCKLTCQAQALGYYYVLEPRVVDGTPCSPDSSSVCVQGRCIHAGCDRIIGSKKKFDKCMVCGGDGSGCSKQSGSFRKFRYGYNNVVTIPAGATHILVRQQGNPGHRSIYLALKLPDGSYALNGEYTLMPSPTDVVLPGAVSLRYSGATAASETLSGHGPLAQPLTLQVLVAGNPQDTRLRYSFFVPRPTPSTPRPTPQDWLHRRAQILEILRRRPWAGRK
Description: To confirm the selectivity of ISVD 02F03 for ADAMTS5, inhibition of the enzymatic activity of MMP1, MMP14 and ADAMTS4 was evaluated via FRET-based assays and a human ADAMTS4 AlphaLISA, with the respective enzymes.
To evaluate inhibition of human ADAMTS4, an assay similar to the human ADAMTS5 AlphaLISA was carried out, essentially as described in Example 2.1, but using human ADAMTS4 (R&D Systems, Minneapolis, US; cat #4307-AD). To determine the ability of ISVD 02F03 to prevent human ADAMTS4-mediated cleavage of the substrate, the decrease in signal was analysed in function of ISVD 02F03 concentration and IC50 values were calculated.

SPR based off-rate, kd, Human ADAMTS-5 ([1]; Experiment 1): 3.3e-05 s⁻¹
SPR based off-rate, kd, Human ADAMTS-5 ([1]; Experiment 2): 6.5e-05 s⁻¹
SPR based off-rate, kd, Human ADAMTS-5 ([1]; Experiment 3): 9.7e-05 s⁻¹
SPR based off-rate, kd, Cyno ADAMTS-5 [2]: 2.2e-05 s⁻¹
SPR based off-rate, kd, Bovine ADAMTS-5 [3]: 4.3e-05 s⁻¹
inhibition of human ADAMTS4 activity [4]: did not show any inhibitory activity
B1: ISVD 02F03: immunoglobulin single variable domain which specifically binds ADAMTS5 (protein)
VHH: EVQLVESGGGVVQPGGSLRLSCAASGRTVSSYAMGWFRQAPGKEREFVAGISRSAERTYYVDSLKGRFTISRDNSKNTVYLQMNSLRPEDTALYYCAADLDPNRIFSREEYAYWGQGTLVTVSS
modifications: Description of Artificial Sequence: Synthetic anti-ADAMTS5 immunoglobulin single variable domain (ISVD)
